We go through 167 variants from the RNAGym collection of RNA variant scans (doi:10.7554/elife.80360).

B1: HDV Ribozyme (parent)
chain: GGCCGGCAUGGUCCCAGCCUCCUCGCUGGCGCCGGCUGGGCAACAUUCCGAGGGGACCGUCCCCUCGGUAAUGGCGAAUGGGACCCA

The variants in the data set derive from B1. The data set is described as follows: self-cleavage, relative activity (ratio to wild type); higher = more cleavage; co-transcriptional.
Take C36U C58A: the self-cleavage is 0.964.

For C36U C58U, the self-cleavage was 0.866.

With U37C A42G, the self-cleavage is 0.795.

C36G C86A: the self-cleavage is 0.181.

Turning to C36G C86G, the self-cleavage worked out at 0.119.

For the variant U37C G67A, the self-cleavage came to 1.

In the case of C36U C63A, the self-cleavage came out at 0.534.

Turning to C36U C63G, the self-cleavage was found to be 0.493.

As for C36U U65A, the self-cleavage came to 0.665.

Regarding C36U U65C, the self-cleavage was determined as 0.712.

Consider C36U U65G, for which the self-cleavage came out at 0.582.

Take U37A G80A: the self-cleavage turned out to be 0.145.

On to U37A G80U, for which the self-cleavage was 0.0727.

As for U37A C49U, the self-cleavage is 0.155.

Consider U37A C49G, for which the self-cleavage was 0.201.

On to C36G G76C, for which the self-cleavage was determined as 0.0692.

Consider U37C G76A, for which the self-cleavage came out at 0.972.

Regarding U37C A77C, the self-cleavage was determined as 0.415.

Regarding U37C A77U, the self-cleavage came out at 0.388.

In the case of U37C A77G, the self-cleavage was found to be 1.03.

Turning to U37A G68C, the self-cleavage came out at 0.0405.

In the case of U37A G68A, the self-cleavage turned out to be 0.381.

As to C36U C41U, the self-cleavage came to 0.602.

As for U37C G55U, the self-cleavage is 1.13.

In the case of C36G G74A, the self-cleavage was 0.0779.

For U37A U79C, the self-cleavage came to 0.0623.

As to U37A U79G, the self-cleavage amounted to 0.

Regarding U37A G40U, the self-cleavage worked out at 0.157.

Turning to U37A G40C, the self-cleavage was determined as 0.0519.

Regarding U37A C41A, the self-cleavage was 0.237.

As to U37A C48U, the self-cleavage was determined as 0.237.

Take U37A C48G: the self-cleavage was found to be 0.148.

Regarding U37C C85G, the self-cleavage worked out at 0.95.

U37C C85A: the self-cleavage was found to be 1.16.

As for U37C C85U, the self-cleavage was found to be 1.01.

Consider U37A A70U, for which the self-cleavage is 0.196.

Regarding U37A A70C, the self-cleavage turned out to be 0.0639.

C36G G80A: the self-cleavage was 0.0382.

Turning to C36G G80C, the self-cleavage stood at 0.108.

As to C36G G80U, the self-cleavage was 0.0507.

In the case of U37G A45G, the self-cleavage stood at 0.0692.

On to C36U U79G, for which the self-cleavage was found to be 0.325.

For the variant C36U U46C, the self-cleavage turned out to be 0.481.

On to U37A U60A, for which the self-cleavage came out at 0.111.

In the case of U37A U60C, the self-cleavage amounted to 0.192.

Consider U37G G67C, for which the self-cleavage is 0.229.

U37C A56U: the self-cleavage came out at 1.09.

As for U37C A56G, the self-cleavage worked out at 1.23.

Regarding C36G G81A, the self-cleavage came to 0.0545.

Turning to C36G G81U, the self-cleavage was 0.114.

Take U37G A43U: the self-cleavage came out at 0.208.

On to U37G A43C, for which the self-cleavage amounted to 0.133.

As for U37G A43G, the self-cleavage was 0.

Turning to C36G G38C, the self-cleavage stood at 0.208.

For C36G C66G, the self-cleavage amounted to 0.237.

Regarding C36G G53U, the self-cleavage was 0.148.

For the variant C36G G53A, the self-cleavage was 0.0959.

As for U37G C48A, the self-cleavage came out at 0.277.

U37C U65A: the self-cleavage came out at 0.929.

Turning to U37C U65C, the self-cleavage was 1.05.

For C36U A51C, the self-cleavage was 0.665.

For the variant C36U A51U, the self-cleavage worked out at 0.743.

Consider U37C C41U, for which the self-cleavage amounted to 1.29.

U37C C41A: the self-cleavage was 0.929.

C36U A71C: the self-cleavage worked out at 0.408.

As for U37A G73C, the self-cleavage was 0.0378.

Take U37A G73A: the self-cleavage came to 0.0346.

Regarding U37A G73U, the self-cleavage is 0.225.

Regarding C36U, the self-cleavage turned out to be 0.744.

As for U37C C61U, the self-cleavage amounted to 0.884.

For U37C G81U, the self-cleavage turned out to be 0.211.

Take U37C G81A: the self-cleavage is 0.283.

As to U37C G81C, the self-cleavage was 0.138.

Consider U37C A83C, for which the self-cleavage was 0.383.

Consider C36U C61G, for which the self-cleavage amounted to 0.466.

With C36U C61U, the self-cleavage came to 0.726.

Regarding C36U C61A, the self-cleavage was found to be 0.831.

With C36U C48U, the self-cleavage turned out to be 0.746.

As for U37A C64G, the self-cleavage was found to be 0.354.

Turning to U37A C64U, the self-cleavage turned out to be 0.185.

On to U37G C58A, for which the self-cleavage was 0.145.

For the variant U37G C58U, the self-cleavage worked out at 0.0504.

Take U37G C58G: the self-cleavage amounted to 0.369.

Consider U37A G82C, for which the self-cleavage amounted to 0.0405.

U37C C63G: the self-cleavage stood at 0.965.

With U37C C63A, the self-cleavage stood at 1.03.

U37G G38C: the self-cleavage was 0.192.

As to U37C A45G, the self-cleavage worked out at 0.762.

For the variant U37C A45C, the self-cleavage came out at 0.539.

U37C G59U: the self-cleavage came out at 1.25.

In the case of U37C G59C, the self-cleavage was found to be 1.16.

For U37G C85A, the self-cleavage was 0.0875.

In the case of U37G A71C, the self-cleavage is 0.0831.

Consider U37G A71G, for which the self-cleavage stood at 0.0594.

In the case of U37G A71U, the self-cleavage came out at 0.0594.

As for U37A A78G, the self-cleavage stood at 0.131.

Turning to C36U G82U, the self-cleavage amounted to 0.234.

Consider C36U G82A, for which the self-cleavage came to 0.327.

Turning to C36U G82C, the self-cleavage was determined as 0.269.

For the variant C36U G59U, the self-cleavage was found to be 0.806.

With U37A U72C, the self-cleavage was 0.

As to U37C G73U, the self-cleavage turned out to be 0.185.

Consider U37C G73C, for which the self-cleavage came out at 0.356.

Take U37C G73A: the self-cleavage was 0.493.

In the case of U37A A71G, the self-cleavage worked out at 0.128.

In the case of C36G G39U, the self-cleavage was 0.0652.

U37C G40U: the self-cleavage was 0.456.

As for U37C G40C, the self-cleavage is 0.262.

With U37C G68C, the self-cleavage is 0.682.

Regarding U37C G68U, the self-cleavage is 1.05.

For C36U A87U, the self-cleavage is 0.769.

C36U A87C: the self-cleavage came to 0.778.

Regarding C36G G59A, the self-cleavage turned out to be 0.169.

In the case of U37G A70G, the self-cleavage was found to be 0.

Take U37G A70U: the self-cleavage amounted to 0.229.

With C36U G80U, the self-cleavage turned out to be 0.224.

C36G G54U: the self-cleavage is 0.166.

For U37A A45G, the self-cleavage stood at 0.125.

Regarding U37C U72G, the self-cleavage is 0.429.

As to U37C U72C, the self-cleavage is 0.462.

As for U37C U72A, the self-cleavage was 0.356.

Consider U37C U69A, for which the self-cleavage was 0.9.

As to U37C U69G, the self-cleavage came to 1.19.

With U37G C62U, the self-cleavage turned out to be 0.308.

As for C36G U72A, the self-cleavage amounted to 0.138.

Consider C36G U72C, for which the self-cleavage worked out at 0.0462.

In the case of C36G G82C, the self-cleavage amounted to 0.141.

For U37C C57U, the self-cleavage is 0.875.

Take U37C C57A: the self-cleavage stood at 1.

Turning to U37C C44A, the self-cleavage was 0.499.

Turning to U37C C44G, the self-cleavage was found to be 0.63.

For U37G A78C, the self-cleavage was found to be 0.196.

Turning to U37G A78U, the self-cleavage is 0.

U37A G81U: the self-cleavage was determined as 0.0875.

As for U37A G81C, the self-cleavage was 0.227.

Regarding C36U A45C, the self-cleavage amounted to 0.0426.

Take C36U A45U: the self-cleavage turned out to be 0.658.

In the case of U37A A51C, the self-cleavage worked out at 0.217.

For C36U G73C, the self-cleavage was found to be 0.161.

U37C G50U: the self-cleavage was found to be 0.923.

For U37G C75G, the self-cleavage came to 0.

On to U37C C49A, for which the self-cleavage was determined as 1.31.

For the variant U37C C49U, the self-cleavage worked out at 0.928.

In the case of U37G A42G, the self-cleavage was 0.0723.

C36G G40C: the self-cleavage came to 0.185.

Turning to C36G G40U, the self-cleavage worked out at 0.108.

For C36G G40A, the self-cleavage amounted to 0.157.

Regarding C36U C84U, the self-cleavage is 0.716.

As to C36U C84A, the self-cleavage was 0.489.

Turning to C36U C84G, the self-cleavage is 0.324.

For the variant U37A U69A, the self-cleavage turned out to be 0.101.

Turning to U37A U69C, the self-cleavage was 0.415.

Turning to C36G C75A, the self-cleavage was 0.151.

In the case of C36G C75U, the self-cleavage was 0.233.

Take C36G C75G: the self-cleavage came to 0.0773.

Consider C36G G73U, for which the self-cleavage was determined as 0.0326.

Regarding U37C A71G, the self-cleavage was found to be 0.751.

Consider U37C A71U, for which the self-cleavage is 0.807.

In the case of U37C A71C, the self-cleavage was 0.917.

Take C36G U65A: the self-cleavage worked out at 0.244.

Consider U37G G39U, for which the self-cleavage was 0.

Take U37G G50C: the self-cleavage worked out at 0.185.

U37G G50U: the self-cleavage worked out at 0.135.

For the variant U37G G50A, the self-cleavage came to 0.113.

For U37A C66G, the self-cleavage worked out at 0.158.

With U37G C63U, the self-cleavage turned out to be 0.151.

As to U37G C63G, the self-cleavage is 0.0615.
